Source: PMC7666168

Molecular target: ΔN−3 gp17.1 (bacteriophage SPP1) (UniProt O48449)
Assay: cryo-EM structure; helical reconstruction of polymerized ΔN−3 gp17.1 tubes, 20 mM Tris-HCl pH 7.4 in place of phosphate; the most straight tubes selected; C6, rise 38.46 Å, twist 21.89°; atomic model by hybrid calculation (ISD) with solid-state NMR restraints from gp17.1 tubes

- stoichiometry N: 6
Substance: ΔN−3 gp17.1 (from UniProt O48449 1-264) (natural protein)
